Here are results for five molecules from US20250084163A1 (SORRENTO THERAPEUTICS, published 2025).

Test [1] deals with T1, Human ROR1 protein (UniProt Q01973-1) (human, UniProt Q01973 30-937).
T1 construct: Endogenous ROR1 of human tumour cell lines; also called ROR1 on A549, Raji (RAJI) and MCF7 cells; cognate antigen expressed at the surface of cells
In words: flow cytometry on A549, Raji and MCF7 cells (ROR1+). Here is the method: Flow cytometry was used to test antibody binding to adenocarcinomic human alveolar basal epithelial cell line A549 (ROR1+), Burkitt's lymphoma cell line RAJI (ROR1+), breast cancer cell line (ROR1+), A549 ROR1-KO cell line (ROR1 knockout) which is ROR1 negative, and Duke's type B adenocarcinoma cell line LS174T (ROR1 negative).
The cells were re-suspended in 120 µL/well of FACS buffer containing Goat anti-human IgG AF647 (1:2,000, Southern Biotech, Cat No. 2040-31, Lot No. D1817-T817C) and plate was incubated for 20 minutes at 4° C. in the dark.
FIGS. 4A-E show anti-human ROR1 antibodies RO6D8-s10, RO6D8-jlv1011, RO6A-a7gm and RO6A-a8gm binding to ROR1-expressing A549 (FIG. 4A), Raji (FIG. 4B), and MCF7 (FIG. 4C) cells; and ROR1 negative A549 ROR1-KO (FIG. 4D) and LS174T (FIG. 4E) cells.

Test [2] concerns the target T1, Human ROR1 protein (UniProt Q01973-1). As to the kind of experiment: flow cytometry on A549 cells (ROR1+). Here is the method:
Flow cytometry was used to test antibody binding to adenocarcinomic human alveolar basal epithelial cell line A549 (ROR1+) and immortalized line of human T lymphocyte cell line Jurkat (ROR1 negative), using various anti-ROR1 antibodies. The cells were prepared at concentration of 1×10⁶/ml in FACS buffer (PBS, 2% FBS, and 0.05% azide). Cells were plated at 30 μl/well in a V-bottom 96-well plate. Anti-ROR1 antibodies (with RO6D8wt used as control) were diluted in FACS buffer (5X serial dilution starting from 50 μg/ml) and 30 μl was added to each well with either A549 or Jurkat cells for 60 min on ice. After incubation, the cells were centrifuged at 2000 rpm for 5 minutes, flip out supernatant. After 1 wash with 200 μL/well of FACS buffer, cells were incubated with an AF647 goat anti-human Fab2 antibody (Jackson ImmunoResearch; Cat. No. 109-606-088) (dilution 1:2000 in FACS buffer) at 50 μL/well for 40 min on ice. After incubation, the cells were centrifuged at 2000 rpm for 5 minutes, flip out supernatant. After 1 wash with 200 μL/well of FACS buffer cells were resuspended in 30 μl of FACS buffer and acquired by flow cytometry using IntelliCyt readout.
A general note: Flow cytometry measures light scatter and fluorescence of single cells or particles in a stream.

For test [3], the target named is T2, Recombinant truncated human his-tag ROR1 Ig-like domain (human, UniProt Q01973 39-151).
T2 construct: also called human his-tag ROR1 Ig-like domain C-his; human ROR1 Ig-like domain
In words: ELISA, antibody coated at 5 ug/mL, his-tagged antigen at 2 ug/ml, anti-his HRP. Here is the method: (§1) Cross-reactivity of the anti-human ROR1 antibodies with his-tagged ROR1 recombinant protein from human and mouse, were analyzed by ELISA assay. The antibodies 5 μg/mL (RO6D8wt, RO6D8-s10, RO6D8-glv1011, RO6D8-jlv1011, RO6D8-1v1011) were diluted with PBS buffer and coated on a plate at 50 μL per well or control buffers coated on a plate at 50 μL per well. The plate was washed three times with 150 μL/well of PBS-T (PBSIX supplemented with 0.05% Tween 20). Subsequently, the plate was blocked with 100 μL/well of blocking buffer (blocker Casein in PBS from Bioworld, Cat. No. 40320020-2) for 1 hour at RT. The plates were washed 3 times with 150 μL/well of PBS-T, after blocking. Recombinant mouse his-tag ROR1, 2 μg/ml (Acro Biosystems Cat. No. RO1-M5221, Lot: 1201-48ESI-65), human his-tag ROR1 extracellular domain (SEQ ID NO:2), 1 μg/ml (Acro Biosystems Cat. No. RO1-H522Y, lot: C81-76KF1-FR), human his-tag ROR1 Ig-like domain C-his, 2 μg/ml (Acro Biosystems Cat. No. RO1-H5221, Lot: B311-59SSI-CA), human his-tag CD138, 2 μg/ml (Sino Cat. No. 11429-H08H, Lot: LCL07NO0412) (negative control antibody), and Casein/PBS buffer (control). 30 μl of his-tagged ROR1 antigen, his tagged CD138 or Casein/PBS buffer were added to the plate, per well, and incubated for 1 hour at room temperature. The plate was washed three times with 150 μL/well of PBS-T and anti 6x-his (SEQ ID NO:58) tag antibody HRP (Abcam; Cat. No. Ab1187) was incubated at dilution 1:5,000, 30 μL/well for 1 hour at RT. […] The signal was stopped at the desired saturation point by using 15 μL/well of 2 N sulfuric acid (H₂SO₄) stop solution and read on a plate reader at 450 nm.
(An ELISA detects its analyte on a solid surface through an enzyme-linked reagent.)

For test [4], the target named is T3, Recombinant truncated human his-tag ROR1 extracellular domain protein (human, UniProt Q01973 30-403).
T3 construct: the tag is part of the entry; also called his-tagged ROR1 protein; human ROR1 ECD
As to the kind of experiment: SPR (Biacore T200), antibody captured by anti-human Fc, his-tagged ROR1 ECD as analyte. Here is the method:
Binding kinetics of anti-ROR1 antibodies with his-tagged ROR1 protein were measured using surface plasmon resonance (SPR). The anti-ROR1 antibodies tested included proprietary antibodies RO6D8 wt, RO6D8-s10, RO6D8-jlv1011, and RO6D8-011. Anti-human fragment crystallizable region (Fc region) antibody was immobilized on a CM5 sensor chip to approximately 8,000 RU using standard N-hydroxysuccinimide/N-Ethyl-N′-(3-dimethylaminopropyl) carbodiimide hydrochloride (NHS/EDC) coupling methodology. The anti-ROR1 antibodies (1-2 μg/mL) were captured for 60 seconds at a flow rate of 10 μL/minute. The his-tagged ROR1 protein included amino acid 30 to amino acid 403 of SEQ ID NO: 1 (i.e., SEQ ID NO:2) (Acro Biosystems; Cat. No. RO1-H522Y). This polypeptide was serially diluted in a running buffer of 0.01 M HEPES pH 7.4, 0.15 M NaCl, 3 mM EDTA, 0.05% v/v Surfactant P20 (HBS-EP+) and run at 6 different dilutions. All measurements were conducted in HBS-EP+ buffer with a flow rate of 30 μL/minute. A 1:1 (Langmuir) binding model was used to fit the data. All BIACORE assays were performed at room temperature using Biacore T200 surface plasmon resonance (GE Healthcare).
A general note: Surface plasmon resonance follows binding to a sensor surface in real time, without labels.

The target in test [5] is T3, Recombinant truncated human his-tag …. As to the kind of experiment: ELISA, antibody coated at 5 ug/mL, his-tagged antigen at 1 ug/ml, anti-his HRP. Here is the method: as §1, with “(control).” for “(control). 30 μl of his-tagged ROR1 antigen, his tagged CD138 or Casein/PBS buffer were added to the plate, per well, and incubated for 1 hour at room temperature. The plate was washed three times with 150 μL/well of PBS-T and anti 6x-his (SEQ ID NO:58) tag antibody HRP (Abcam; Cat. No. Ab1187) was incubated at dilution 1:5,000, 30 μL/well for 1 hour at RT.”

T1 sequence (Q01973 30-937 limits assumed, one chain of several): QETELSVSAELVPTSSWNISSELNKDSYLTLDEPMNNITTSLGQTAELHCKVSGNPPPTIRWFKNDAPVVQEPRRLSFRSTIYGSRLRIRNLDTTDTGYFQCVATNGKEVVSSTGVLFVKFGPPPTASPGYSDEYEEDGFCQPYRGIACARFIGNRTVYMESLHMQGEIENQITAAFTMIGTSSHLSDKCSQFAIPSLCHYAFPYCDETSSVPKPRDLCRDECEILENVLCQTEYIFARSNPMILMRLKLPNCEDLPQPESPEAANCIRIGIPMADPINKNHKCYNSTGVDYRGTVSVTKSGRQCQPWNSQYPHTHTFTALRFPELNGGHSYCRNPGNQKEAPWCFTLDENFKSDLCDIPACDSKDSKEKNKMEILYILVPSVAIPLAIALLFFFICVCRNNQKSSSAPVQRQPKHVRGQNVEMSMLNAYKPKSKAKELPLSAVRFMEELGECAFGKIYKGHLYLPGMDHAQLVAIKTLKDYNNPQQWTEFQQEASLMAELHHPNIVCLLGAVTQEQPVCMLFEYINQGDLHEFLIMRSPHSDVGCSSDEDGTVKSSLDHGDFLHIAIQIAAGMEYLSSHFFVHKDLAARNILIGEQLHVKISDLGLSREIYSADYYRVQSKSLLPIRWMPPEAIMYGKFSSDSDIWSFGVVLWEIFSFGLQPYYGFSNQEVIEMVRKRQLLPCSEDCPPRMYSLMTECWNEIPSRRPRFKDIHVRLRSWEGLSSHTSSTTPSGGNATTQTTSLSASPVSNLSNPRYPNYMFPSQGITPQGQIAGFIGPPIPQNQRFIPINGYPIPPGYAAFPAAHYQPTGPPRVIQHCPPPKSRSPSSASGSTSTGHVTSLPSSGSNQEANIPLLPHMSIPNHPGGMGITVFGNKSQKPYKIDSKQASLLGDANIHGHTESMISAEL
T2 sequence (Q01973 other isoform, or with tags, fused parts or gaps limits assumed): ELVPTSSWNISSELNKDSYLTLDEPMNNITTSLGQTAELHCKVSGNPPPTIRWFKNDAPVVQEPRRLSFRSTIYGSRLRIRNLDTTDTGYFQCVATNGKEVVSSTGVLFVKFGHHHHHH
T3 sequence (Q01973 other isoform, or with tags, fused parts or gaps limits assumed): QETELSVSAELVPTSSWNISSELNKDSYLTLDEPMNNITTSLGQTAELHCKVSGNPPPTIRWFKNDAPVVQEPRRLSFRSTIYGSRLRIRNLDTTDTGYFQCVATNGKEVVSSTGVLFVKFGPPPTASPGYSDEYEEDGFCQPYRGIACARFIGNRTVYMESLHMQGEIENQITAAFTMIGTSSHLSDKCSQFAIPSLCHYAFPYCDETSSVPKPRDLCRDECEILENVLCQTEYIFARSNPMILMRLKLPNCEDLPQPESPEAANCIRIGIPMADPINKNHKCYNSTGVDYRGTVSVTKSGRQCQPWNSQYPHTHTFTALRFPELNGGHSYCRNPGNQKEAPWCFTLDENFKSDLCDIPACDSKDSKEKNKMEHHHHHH

B1: RO6A-a8gm (antibody, V domains shown)
VH: QVQLVESGGGLVKPGGSLRLSCAASGFTFSDYYMTWIRQAPGKGLEWVSYISGSSAYSNYADSVKGRFTISRDNSKNTLYLQMNSLRAEDTAVYYCARDPLLYGWLTDWGQGTLVTVSS
VL: QSALTQPASVSGSPGQSITISCTGTSSDGGGYDSVSWYQQHPGKAPKLMIYDVNKRPSGVSGRFSGSKSGNTASLTISGLQAEDEADYYCSSFTSDVMVFGGGTKLTVL
notes: it was detected with goat anti-human IgG and compared with an IgG1 isotype control
B1: the binding result in test [1] is given as “binds”.

B2: RO6D8-s10 (antibody, V domains shown)
VH: QVQLVQSGAEVKKPGASVKVSCKASGYTFTNYYMHWVRQAPGQGLEWMGIINPSGGSTSYAQKFQGRVTMTRDTSTSTVYMELSSLRSEDTAVYYCARSSRSSYYLWVLDLWGQGTTVTVSS
VL: AIQMTQSPSSLSASVGDRVTITCRASQGVSTEIAWYQQKPGKAPKLLIYAASSLQSGVPSRFSGSGSGTDFTLTISSLQPEDFATYYCQQFNSYPITFGQGTRLEIK
On to B2, for which the binding result in test [2], in test [3] and in test [4] was “binds” in each case.

B3: RO6D8-jlv1011 (antibody, V domains shown)
VH: QVQLVQSGAEVKKPGASVKVSCKASGYTFTSKYYHWVRQAPGQGLEWMGIINPTSGSTSYAQKFQGRVTMTRDTSTSTVYMELSSLRSEDTAVYYCARDSSRYSGWYFDLWGQGTTVTVSS
VL: AIQLTQSPSSLSASVGDRVTITCRASQGVSTEIAWYQQKPGKAPKLLIYAASSLQSGVPSRFSGSGSGTDFTLTISSLQPEDFATYYCQQYYGYPIAFGQGTRLEIK
As to B3, the binding result in test [2], in test [3] and in test [4] was “binds” in each case.

B4: RO6D8-011 (antibody, V domains shown)
VH: QVQLVQSGAEVKKPGASVKVSCKASGYTFTNYYMHWVRQAPGQGLEWMGIINPTSGRTSYAQKFQGRVTMTRDTSTSTVYMELSSLRSEDTAVYYCARDSSSWYSGWYFDLWGQGTTVTVSS
VL: AIQMTQSPSSLSASVGDRVTITCRASQGIRTDLAWYQQKPGKAPKLLIYAASSLQSGVPSRFSGSGSGTDFTLTISSLQPEDFATYYCQQYYGYPIAFGQGTRLEIK
notes: it was captured by an anti-human Fc antibody in SPR; also called RO6D8-O11
As for B4, the binding result in test [4] was “binds”.

B5: RO6D8wt (antibody, V domains shown)
VH: QVQLVQSGAEVKKPGASVKVSCKASGYTFTNYYMHWVRQAPGQGLEWMGIINPSGGSTSYAQKFQGRVTMTRDTSTSTVYMELSSLRSEDTAVYYCARDSSSWYSGWYFDLWGQGTTVTVSS
VL: AIQMTQSPSSLSASVGDRVTITCRASQDVRAHLAWYQQKPGKAPKLLIYAASSLQSGVPSRFSGSGSGTDFTLTISSLQPEDFATYYCQQFNSYPITFGQGTRLEIK
notes: it was captured by an anti-human Fc antibody in SPR, so it carries a human Fc; also called wildtype anti-human ROR1 antibody
For the molecule B5, the binding result in test [2], in test [5] and in test [3] was “binds” in each case.
